SEQUEST rank in displacer fraction and peptide peak area in displacer fraction data for one molecule are collected here from patent US20090166224A1.

In test [1] the target is Pregnancy zone protein in fucosidase-treated serum (human) (UniProt P20742). Kind of test: fucosidase-treated serum on M-LAC column, displacer fraction, LC-MS/MS; smaller rank = more abundant.
Test [2] has the same target. Kind of test: fucosidase-treated serum on M-LAC column, displacer fraction, extracted ion chromatogram of peptide … (so in the source).

Sequence of Pregnancy zone protein in fucosidase-treated serum (human) (P20742 26-1482 limits assumed): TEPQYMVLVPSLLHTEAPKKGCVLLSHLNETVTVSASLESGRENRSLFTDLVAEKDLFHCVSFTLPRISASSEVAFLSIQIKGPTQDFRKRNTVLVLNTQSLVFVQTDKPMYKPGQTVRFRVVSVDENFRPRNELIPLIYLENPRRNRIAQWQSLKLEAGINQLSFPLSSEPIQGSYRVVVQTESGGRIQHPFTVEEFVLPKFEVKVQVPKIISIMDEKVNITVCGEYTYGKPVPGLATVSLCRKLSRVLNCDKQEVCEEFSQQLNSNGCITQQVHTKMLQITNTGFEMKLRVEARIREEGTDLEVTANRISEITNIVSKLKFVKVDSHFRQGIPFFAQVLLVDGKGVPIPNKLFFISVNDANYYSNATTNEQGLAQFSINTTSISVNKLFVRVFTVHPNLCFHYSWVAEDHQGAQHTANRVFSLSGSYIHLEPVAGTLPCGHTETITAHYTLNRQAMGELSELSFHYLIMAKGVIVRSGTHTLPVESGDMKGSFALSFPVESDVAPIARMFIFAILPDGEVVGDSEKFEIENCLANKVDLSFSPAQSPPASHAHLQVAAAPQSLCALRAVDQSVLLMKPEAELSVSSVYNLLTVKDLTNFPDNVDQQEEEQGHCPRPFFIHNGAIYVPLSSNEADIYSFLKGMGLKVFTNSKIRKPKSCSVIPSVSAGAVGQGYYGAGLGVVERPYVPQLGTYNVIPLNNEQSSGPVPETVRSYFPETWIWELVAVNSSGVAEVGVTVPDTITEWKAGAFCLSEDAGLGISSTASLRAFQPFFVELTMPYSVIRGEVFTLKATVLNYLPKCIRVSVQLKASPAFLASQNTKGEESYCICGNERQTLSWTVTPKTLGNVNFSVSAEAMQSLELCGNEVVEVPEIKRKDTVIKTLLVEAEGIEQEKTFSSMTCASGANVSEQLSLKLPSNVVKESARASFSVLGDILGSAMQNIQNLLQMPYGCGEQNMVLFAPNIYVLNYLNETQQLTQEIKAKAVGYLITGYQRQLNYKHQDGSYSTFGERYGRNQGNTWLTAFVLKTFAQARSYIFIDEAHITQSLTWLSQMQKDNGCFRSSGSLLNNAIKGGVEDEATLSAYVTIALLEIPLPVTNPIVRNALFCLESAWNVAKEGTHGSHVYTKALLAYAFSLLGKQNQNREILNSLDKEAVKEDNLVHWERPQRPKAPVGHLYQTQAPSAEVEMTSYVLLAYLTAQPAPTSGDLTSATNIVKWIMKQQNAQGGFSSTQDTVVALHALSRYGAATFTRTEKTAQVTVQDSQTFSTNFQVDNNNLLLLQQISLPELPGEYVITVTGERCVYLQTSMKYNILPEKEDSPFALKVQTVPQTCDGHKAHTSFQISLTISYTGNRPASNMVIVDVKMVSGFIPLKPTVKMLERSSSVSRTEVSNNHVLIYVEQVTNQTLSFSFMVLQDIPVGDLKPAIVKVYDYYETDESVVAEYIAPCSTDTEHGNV

B1: Jacalin lectin, agarose-bound (protein)
chain 1: GKAFDDGAFTGIREINLSYNKETAIGDFQVVYDLNGSPYVGQNHKSFITGFTPVKISLDFPSEYIMEVSGYTGNVSGYVVVRSLTFKTNKKTYGPYGVTSGTPFNLPIENGLIVGFKGSIGYWLDYFSMYLSL
chain 2: NEQSGKSQTVIVGSWGAKVS
modifications: immobilized on agarose
In turn, B1 returned an SEQUEST rank in displacer fraction in test [1] of 6. Moreover, in test [2], the peptide peak area in displacer fraction was determined as 0 counts.
